Laboratory results as given in PMC9881158, “The DEAD-box protein Dbp6 is an ATPase and RNA annealase interacting with the peptidyl transferase center (PTC) of the ribosome” (Nucleic Acids Research, 2023).
Where a chain is given by its changes, count along the chain named.

What was measured:
Dbp6 [1] = target: T1, Dbp6 (Saccharomyces cerevisiae, UniProt P53734); assay: ATPase assay, TLC of [α-32P]-ADP; type: biochemical; details: 100 μM ATP, 0.8 μM protein, 2 μM ss58-mer RNA, MgCl2 2.5 mM, pH 8, 30°C; trace E. coli ATPase not excluded by the authors
T1 construct: full-length ORF, His6 tag (modified pET-15b, pET-Dbp6), kept; E. coli Rosetta λDE3; ca. 73 kDa; size exclusion fraction, mainly monomer / dimer
T1 sequence (P53734 1-629): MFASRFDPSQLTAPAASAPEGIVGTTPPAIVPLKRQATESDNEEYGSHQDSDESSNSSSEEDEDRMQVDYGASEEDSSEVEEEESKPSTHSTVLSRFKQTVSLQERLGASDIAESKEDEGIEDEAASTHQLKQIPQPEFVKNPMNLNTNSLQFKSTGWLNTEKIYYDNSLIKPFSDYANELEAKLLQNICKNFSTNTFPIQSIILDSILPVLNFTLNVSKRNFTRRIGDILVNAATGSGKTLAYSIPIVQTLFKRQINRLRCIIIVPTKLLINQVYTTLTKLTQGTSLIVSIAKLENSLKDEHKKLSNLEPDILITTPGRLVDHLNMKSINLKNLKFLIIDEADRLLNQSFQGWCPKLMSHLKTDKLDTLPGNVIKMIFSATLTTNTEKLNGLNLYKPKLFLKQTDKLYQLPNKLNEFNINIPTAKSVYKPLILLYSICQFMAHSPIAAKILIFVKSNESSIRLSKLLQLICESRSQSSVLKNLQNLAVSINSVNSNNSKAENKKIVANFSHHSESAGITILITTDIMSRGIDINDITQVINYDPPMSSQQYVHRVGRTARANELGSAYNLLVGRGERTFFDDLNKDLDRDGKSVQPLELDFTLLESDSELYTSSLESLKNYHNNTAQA

Dbp6 [2] = target: T1, Dbp6; assay: RNA strand annealing assay (ss38-mer / ss58-mer), effect of nucleotide; type: biochemical; details: 5 mM ADP, 0.25 μM protein, MgCl2 2.5 mM, pH 8, 30°C; indirect read-out
Dbp6 [3] = target: T1, Dbp6; assay: EMSA, effect on Dbp6 binding to hemi-duplex RNA ds38/[…]; details: 0.5-5 mM nucleotide, 0.5 μM protein, 1 nM RNA, MgCl2 2.5 mM, pH 8, 30°C; indirect read-out
[4] = target: T2, Dbp6 M-II mutant (motif II, DEAD to DAAD), His6-tagged recombinant, P53734; assay: UV cross-linking; details: chain shown with the change, no RNA included, parent: est. 0.51, read off a plot
T2 chain: T1 sequence (P53734 1-629) with E342A

[5] = target: T3, Dbp6 M-I mutant (motif I, GTGKT), His6-tagged recombinant, P53734; assay: UV cross-linking; details: chain shown with the change, no RNA included, parent: est. 0.51, read off a plot
T3 chain: T1 sequence (P53734 1-629) with K240A

[6] = target: the molecule itself; assay: SEC; Superdex 200 gel filtration after HisTrap; GF-ATPase buffer (20 mM Tris–HCl pH 8.0, 100 mM KCl, 10% glycerol, 1 mM DTT, 0.5 mM PMSF); column calibrated with molecular weight standards
[7] = target: the molecule itself; assay: cross-linking; purified recombinant Dbp6 (1.5 or 0.8 μM) in RB 1× buffer, 15 min at 20°C, UV 312 nm for 6 min on ice; SDS-PAGE, western blot or silver staining; with or without ATP (1 or 5 μM with labelled ATP; 5 mM) and RNA oligonucleotide
[8] = target: the molecule itself; assay: co-IP; immunoprecipitation of Dbp6-ZZ with IgG-sepharose from extracts of a yeast strain expressing HA-Dbp6 and ZZ-tagged Dbp6, in the presence of RNase; western blot
Dbp6 [9] = target: T4, Dbp6 (Saccharomyces cerevisiae, UniProt P53734 1-629); assay: EMSA; no nucleotide; EMSA: 1 nM 32P-RNA, RB 1x (composition not in the material), RNasin, 15 min at 30 C, native PAGE in TBE; bridging: 0.8 uM Dbp6, RB 1x, 15 min at 30 C; details: protein: recombinant; tags: N-terminal His6; label: 32P
T4 sequence: T1 sequence (P53734 1-629)

Dbp6 [10] = target: T4, Dbp6; assay: EMSA; Dbp6 up to 1.2 uM; EMSA: 1 nM 32P-RNA, RB 1x (composition not in the material), RNasin, 15 min at 30 C, native PAGE in TBE; bridging: 0.8 uM Dbp6, RB 1x, 15 min at 30 C; details: protein: recombinant; tags: N-terminal His6; label: 32P
Dbp6 [11] = target: T4, Dbp6; assay: EMSA; high affinity; no nucleotide; EMSA: 1 nM 32P-RNA, RB 1x (composition not in the material), RNasin, 15 min at 30 C, native PAGE in TBE; bridging: 0.8 uM Dbp6, RB 1x, 15 min at 30 C; details: protein: recombinant; tags: N-terminal His6; label: 32P on ss38-mer; 3' overhang 20 nt on strand 1; 38 bp region with one C-C mismatch

Q: `Nc1ncnc2c1ncn2[C@@H]1O[C@H](COP(=O)(O)OP(=O)(O)OP(=O)(O)O)[C@@H](O)[C@H]1O` [ATP] was tested. Which “ATPase assay, TLC of [α-32P]-ADP” value (Dbp6 [1]) did it give?
A: This ATPase activity could be attributed to Dbp6

Q: How did the “RNA strand annealing assay (ss38-mer / ss58-mer), effect of nucleotide” value (Dbp6 [2]) turn out when `Nc1ncnc2c1ncn2[C@@H]1O[C@H](COP(=O)(O)OP(=O)(O)O)[C@@H](O)[C@H]1O` [ADP] was run?
A: In contrast, ADP addition increased the annealing activity of Dbp6.

Q: With `Nc1ncnc2c1ncn2[C@@H]1O[C@H](COP(=O)(O)OP(=O)(O)OP(O)(O)=S)[C@@H](O)[C@H]1O` [ATPγS] as the molecule, how does the “EMSA, effect on Dbp6 binding to hemi-duplex RNA ds38/58” value (Dbp6 [3]) read?
A: ATPγS had an even stronger effect on Dbp6 binding to the hemi-duplex than ATP.

B1: recombinant His6-Dbp6, P53734 M-II: E to A in motif II (DEAD to DAAD) (protein)
chain: T1 sequence (P53734 1-629) with E342A
Q: For B1, which other: quantity of oligomers with ATP, relative to without ATP (set at 1) [4] is on record?
A: 0.96

B2: recombinant His6-Dbp6, P53734 M-I: K to A in motif I (GTGKT) (protein)
chain: T1 sequence (P53734 1-629) with K240A
Q: B2 was tested. Which other: quantity of oligomers with ATP, relative to without ATP (set at 1) [5] did it give?
A: 0.97

B3: recombinant His6-Dbp6 (enzyme, S. cerevisiae, UniProt P53734 1-629, looked up)
chain: T1 sequence (P53734 1-629)
notes: DEAD-box protein Dbp6 of yeast (S. cerevisiae), DBP6 ORF cloned downstream of a His tag in modified pET-15b; His6-Dbp6 ca. 73 kDa; SEC fractions also hold some truncated fragments of Dbp6; fraction F17 was used for the in vitro assays; also called WT Dbp6; wild-type Dbp6; source: E. coli Rosetta λDE3, purified (HisTrap FF, Superdex 200); not shown: His6, N-terminal, kept
Q: Which results are given for B3?
A: stoichiometry N [6]: 2; fold reduction of oligomerization with 5 mM ATP against no ATP [7]: ~2 fold

B4: Dbp6 ΔN mutant (lacking the N-terminal D/E-rich sequence, residues 24–128), His6-tagged recombinant (enzyme, S. cerevisiae, UniProt P53734 1-629, looked up)
chain: MFASRFDPSQLTAPAASAPEGIVHQLKQIPQPEFVKNPMNLNTNSLQFKSTGWLNTEKIYYDNSLIKPFSDYANELEAKLLQNICKNFSTNTFPIQSIILDSILPVLNFTLNVSKRNFTRRIGDILVNAATGSGKTLAYSIPIVQTLFKRQINRLRCIIIVPTKLLINQVYTTLTKLTQGTSLIVSIAKLENSLKDEHKKLSNLEPDILITTPGRLVDHLNMKSINLKNLKFLIIDEADRLLNQSFQGWCPKLMSHLKTDKLDTLPGNVIKMIFSATLTTNTEKLNGLNLYKPKLFLKQTDKLYQLPNKLNEFNINIPTAKSVYKPLILLYSICQFMAHSPIAAKILIFVKSNESSIRLSKLLQLICESRSQSSVLKNLQNLAVSINSVNSNNSKAENKKIVANFSHHSESAGITILITTDIMSRGIDINDITQVINYDPPMSSQQYVHRVGRTARANELGSAYNLLVGRGERTFFDDLNKDLDRDGKSVQPLELDFTLLESDSELYTSSLESLKNYHNNTAQA
notes: made from pET-Dbp6; also called pET-ΔN; source: E. coli Rosetta λDE3, purified (HisTrap FF, Superdex 200)
Q: Does B4 bind [6]?
A: binds

B5: Dbp6 expressed in yeast as HA-Dbp6 and as Dbp6-ZZ (enzyme, S. cerevisiae, UniProt P53734 1-629, looked up)
chain: T1 sequence (P53734 1-629)
notes: DEAD-box protein Dbp6 of yeast (S. cerevisiae); HA-tagged ORF under the GAL1-10 promoter and wild-type DBP6 cassette in pHA113 between a GAR1 promoter and a ZZ tag; also called ZZ-tagged Dbp6; GAL::HA-DBP6; source: yeast strain expressing HA-Dbp6 as well as ZZ-tagged Dbp6, in extract
Q: Which “fold enrichment over background” value [8] does the source give for B5 here?
A: ~2 fold

B6: ss38-mer (ssRNA)
RNA: CAGAACCGCUACACUGAAAUGAUCAAUUCCGGUCUCCC
Q: Does B6 bind (Dbp6 [9])?
A: binds

B7: ss21-mer (ssRNA)
RNA: GGGAGACCGGAAUUCAUCAUU
Q: Does B7 bind (Dbp6 [10])?
A: no binding

B8: ds38/58 hemi-duplex (dsRNA)
RNA 1: GGGAGACCGGAAUUCAUCAUUUCAGUGUAGCGGUUCUGACGUGCAAAUCGAUCGUCGA
RNA 2: B6 RNA
Q: Does B8 bind (Dbp6 [11])?
A: binds
